This data set has as its target T1, GST-Zc3h10 full length (UniProt Q8R205 1-435).
T1 sequence: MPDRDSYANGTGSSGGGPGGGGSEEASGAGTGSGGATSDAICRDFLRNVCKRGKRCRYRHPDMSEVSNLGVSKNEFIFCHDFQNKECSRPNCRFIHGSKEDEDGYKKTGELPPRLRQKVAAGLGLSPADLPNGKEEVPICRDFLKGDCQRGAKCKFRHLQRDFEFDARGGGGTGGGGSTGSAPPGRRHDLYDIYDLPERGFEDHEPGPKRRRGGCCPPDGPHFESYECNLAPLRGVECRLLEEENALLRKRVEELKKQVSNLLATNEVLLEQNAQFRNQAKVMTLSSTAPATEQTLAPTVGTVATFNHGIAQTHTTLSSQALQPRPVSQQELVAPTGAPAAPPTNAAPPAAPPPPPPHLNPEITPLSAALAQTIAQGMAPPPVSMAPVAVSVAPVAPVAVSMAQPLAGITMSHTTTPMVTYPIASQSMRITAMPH
The data set can be described thus: EMSA. Background: In EMSA bound probe runs differently from free probe, usually more slowly.

B1: -4.6 kb UCP1 probe (dsDNA)
DNA 1: TTTACCAAGTCCTTTCCACCGTGCAGGACGCACCATTCGGCAGCTTCCAGTTGTCTGGGAACTTCCAGTTGAAGGGATGA
DNA 2: TCATCCCTTCAACTGGAAGTTCCCAGACAACTGGAAGCTGCCGAATGGTGCGTCCTGCACGGTGGAAAGGACTTGGTAAA
Turning to B1, the binding result is “binds”.
